From US20190038796

Molecular target: EGF-MMP (recombinant epidermal growth factor with N-terminal PLP reactive site AKT, polyhistidine tag and MMP cleavage site VPLSLYSG)
Sequence (chain, as listed by the source): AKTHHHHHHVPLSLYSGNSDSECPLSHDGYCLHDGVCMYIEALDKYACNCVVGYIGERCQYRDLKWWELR

B1: Recombinant, human pro-MMP-9 expressed in CHO cells, activated with amino-phenyl mercuric acetate (APMA) (protein)
chain: APRQRQSTLVLFPGDLRTNLTDRQLAEEYLYRYGYTRVAEMRGESKSLGPALLLLQKQLSLPETGELDSATLKAMRTPRCGVPDLGRFQTFEGDLKWHHHNITYWIQNYSEDLPRAVIDDAFARAFALWSAVTPLTFTRVYSRDADIVIQFGVAEHGDGYPFDGKDGLLAHAFPPGPGIQGDAHFDDDELWSLGKGVVVPTRFGNADGAACHFPFIFEGRSYSACTTDGRSDGLPWCSTTANYDTDDRFGFCPSERLYTQDGNADGKPCQFPFIFQGQSYSACTTDGRSDGYRWCATTANYDRDKLFGFCPTRADSTVMGGNSAGELCVFPFTFLGKEYSTCTSEGRGDGRLWCATTSNFDSDKKWGFCPDQGYSLFLVAAHEFGHALGLDHSSVPEALMYPMYRFTEGPPLHKDDVNGIRHLYGPRPEPEPRPPTTTTPQPTAPPTVCPTGPPTVHPSERPTAGPTGPPSAGPTGPPTAGPSTATTVPLSPVDDACNVNIFDAIAEIGNQLYLFKDGKYWRFSEGRGSRPQGPFLIADKWPALPRKLDSVFEERLSKKLFFFSGRQVWVYTGASVLGPRRLDKLGLGADVAQVTGALRSGRGKMLLFSGRRLWRFDVKAQMVDPRSASEVDRMFPGVPLDTHDVFQYREKAYFCQDRFYWRVSSRSELNQVDQVGYVTYDILQCPED
  conversion to the cleaved product by integration of MALDI-TOF data: over 99% conversion to the cleaved product
  molecular weight by MALDI-TOF after incubation with MMP-9 (cleavage): After 2 hours, the molecular weight decreased from 8.16 kDa to 6.64 kDa, in precise agreement with the theoretical molecular weight of cleaved EGFMMP (6.64 kDa)
